Experimental data taken from patent US7842469B2, “Bioluminescence resonance energy transfer (BRET) systems and methods of use thereof” (Stanford University, priority 2005, dated 2010).
Positions count from the first letter of the chain named. Names may count otherwise. Each block holds one molecule with its values, some of them ahead of it.

Key:
[1] = Bioluminescence emission spectra; format: physicochemical; conditions: emission spectrum with native coelenterazine
Description: (§1) Serum stability measurements were done by mixing 0.5 μl dilute Luciferase with either 20 μl mouse serum or 50 μl rat serum (Equitech-Bio, Kerrville, Tex.) placing the sample in a 37° C. incubator, and removing aliquots for activity testing. To calculate serum half-lives, mono-exponential decay curves were fit to the serum stability data using a Nelder/Mead Simplex non-linear least squares minimization algorithm provided by the Octave numerical programming language. Emission spectra at ambient temperature were measured using a Triax 320 (Horiba Jobin Yvon, Edison, N.J.), which incorporates an optical grating device with a liquid N2 cooled CCD detector.

[2] = Serum stability in rat serum at 37° C.; format: in vitro ADME; conditions: mono-exponential fit
Description: as §1

[3] = Luciferase activity of purified RLuc mutants (light output integrated over 10 s, luminometer); format: biochemical; conditions: relative to native enzyme; for Activity (relative to RLuc) bc: benzyl-coelenterazine; for Activity (relative to RLuc) bdc: bisdeoxycoelenterazine; for Activity (relative to RLuc) cp: coelenterazine-cp; for Activity (relative to RLuc) n: coelenterazine-n; for Activity (relative to RLuc) native: native coelenterazine
Text: Luminometer Calibration: Light measurements were made using a Turner 20/20 and later a Turner 20/20n luminometer (Turner Designs, Sunnyvale, Calif.). The luminometers were calibrated to absolute units (photons/s) using the luminol light standard performed in dimethyl sulfoxide (DMSO). No corrections were applied for the spectral sensitivity of the luminometer, as the spectral peak of luminol chemiluminescence in DMSO (486 nm) is close to the spectral peak of Renilla Luciferase bioluminescence (482 nm).
Characterization of Renilla Luciferase Mutants: Luciferase activity was measured by adding 1 μl of sample (diluted as necessary in EB containing 1% HSA) to 100 μl room temperature 100 mM sodium phosphate buffer (pH 7), manually adding 1 μl of 0.5 μg/μl coelenterazine or analog, manually mixing, and reading for 10 s in a luminometer. The time between the addition of the luciferin and the start of measurement was approximately 4 s.

[4] = Serum stability in mouse serum at 37° C.; format: in vitro ADME; conditions: mouse serum, 37° C., mono-exponential fit
Description: as §1

[5] = Quantum yield measurements; format: biochemical
Description: For quantum yield measurements, separate 1 μl drops of protein (about 2 pm) and substrate (0.2 pm) were placed in a tube, 100 μl of 100 mM sodium phosphate buffer (pH 7) was injected by the luminometer to mix, and the total light output was integrated (generally 5-10 min). For coelenterazine-n, the protein amount was increased 10 fold and the acquisition time lengthened to insure the reaction approached completion.

Activity (relative to RLuc) bc [3]: 0.04
Activity (relative to RLuc) bdc [3]: 0.06
Activity (relative to RLuc) cp [3]: 0.05
Activity (relative to RLuc) n [3]: 0.08
Activity (relative to RLuc) native [3]: 0.05
B1: A54P/C124A: RLuc mutant A54P/C124A (protein)
chain: MASKVYDPEQRKRMITGPQWWARCKQMNVLDSFINYYDSEKHAENAVIFLHGNPASSYLWRHVVPHIEPVARCIIPDLIGMGKSGKSGNGSYRLLDHYKYLTAWFELLNLPKKIIFVGHDWGAALAFHYSYEHQDKIKAIVHAESVVDVIESWDEWPDIEEDIALIKSEEGEKMVLENNFFVETMLPSKIMRKLEPEEFAAYLEPFKEKGEVRRPTLSWPREIPLVKGGKPDVVQIVRNYNAYLRASDDLPKMFIESDPGFFSNAIVEGAKKFPNTEFVKVKGLHFSQEDAPDEMGKYIKSFVERVLKNEQ
Wavelength (nm) mean [1]: 482 nm
Wavelength (nm) peak [1]: 468 nm
Serum τ1/2 (h) rat [2]: 13 h
Serum τ1/2 (h) mouse [4]: 14 h

Activity (relative to RLuc) bc [3]: 0.83
Activity (relative to RLuc) bdc [3]: 0.86
Activity (relative to RLuc) cp [3]: 0.57
Activity (relative to RLuc) n [3]: 0.72
Activity (relative to RLuc) native [3]: 1.0
B2: C124A/M295I: RLuc mutant C124A/M295I (protein)
chain: B1 chain with P54A, M295I
Wavelength (nm) mean [1]: 497 nm
Wavelength (nm) peak [1]: 480 nm
Serum τ1/2 (h) rat [2]: 4.9 h
Serum τ1/2 (h) mouse [4]: 5.0 h

Activity (relative to RLuc) bc [3]: 0.10
Activity (relative to RLuc) bdc [3]: 0.15
Activity (relative to RLuc) cp [3]: 0.12
Activity (relative to RLuc) n [3]: 0.10
Activity (relative to RLuc) native [3]: 0.12
B5: C124A/E195S/P196D: RLuc mutant C124A/E195S/P196D (protein)
chain: B1 chain with P54A, E195S, P196D
Wavelength (nm) mean [1]: 498 nm
Wavelength (nm) peak [1]: 482 nm
Serum τ1/2 (h) rat [2]: 0.7 h
Serum τ1/2 (h) mouse [4]: 1.0 h

Activity (relative to RLuc) bc [3]: 1.0
Activity (relative to RLuc) bdc [3]: 1.8
Activity (relative to RLuc) cp [3]: 1.3
Activity (relative to RLuc) n [3]: 0.88
Activity (relative to RLuc) native [3]: 1.3
B8: F116L/C124A: RLuc mutant F116L/C124A (protein)
chain: B1 chain with P54A, F116L
Wavelength (nm) mean [1]: 502 nm
Wavelength (nm) peak [1]: 486 nm
Serum τ1/2 (h) rat [2]: 9.4 h
Serum τ1/2 (h) mouse [4]: 11 h

Activity (relative to RLuc) bc [3]: 0.01
Activity (relative to RLuc) bdc [3]: 0.01
Activity (relative to RLuc) cp [3]: 0.03
Activity (relative to RLuc) n [3]: 0.03
Activity (relative to RLuc) native [3]: 0.02
B14: C124A/G229E: RLuc mutant C124A/G229E (protein)
chain: B1 chain with P54A, G229E
Wavelength (nm) mean [1]: 490 nm
Wavelength (nm) peak [1]: 473 nm
Serum τ1/2 (h) rat [2]: 1.8 h
Serum τ1/2 (h) mouse [4]: 1.9 h

More lines, now with the values behind:

B3: A55T/C124A: RLuc mutant A55T/C124A (protein)
chain: B1 chain with P54A, A55T
Wavelength (nm) mean [1]: 504 nm
Wavelength (nm) peak [1]: 486 nm
Serum τ1/2 (h) rat [2]: 29 h
Activity (relative to RLuc) bc [3]: 1.2
Activity (relative to RLuc) bdc [3]: 2.4
Activity (relative to RLuc) cp [3]: 0.58
Activity (relative to RLuc) n [3]: 1.4
Activity (relative to RLuc) native [3]: 1.7
Serum τ1/2 (h) mouse [4]: 30 h
Quantum Yield (%) bc ([5]; benzyl-coelenterazine): 3.9 ± 0.1%
Quantum Yield (%) bdc ([5]; bisdeoxycoelenterazine): (1.0 ± 0.9) × 10^−3%
Quantum Yield (%) cp ([5]; coelenterazine-cp): 4.5 ± 0.1%
Quantum Yield (%) n ([5]; coelenterazine-n): 5.7 ± 0.1%
Quantum Yield (%) native ([5]; native coelenterazine): 5.7 ± 0.2%

B4: C124A/L203R: RLuc mutant C124A/L203R (protein)
chain: B1 chain with P54A, L203R
Wavelength (nm) mean [1]: 501 nm
Wavelength (nm) peak [1]: 484 nm
Serum τ1/2 (h) rat [2]: 2.2 h
Activity (relative to RLuc) bc [3]: 0.55
Activity (relative to RLuc) bdc [3]: 0.43
Activity (relative to RLuc) cp [3]: 0.52
Activity (relative to RLuc) n [3]: 0.41
Activity (relative to RLuc) native [3]: 0.55
Serum τ1/2 (h) mouse [4]: 2.7 h

B6: C124A/M191L: RLuc mutant C124A/M191L (protein)
chain: B1 chain with P54A, M191L
Wavelength (nm) mean [1]: 496 nm
Wavelength (nm) peak [1]: 480 nm
Serum τ1/2 (h) rat [2]: 5.1 h
Activity (relative to RLuc) bc [3]: 0.99
Activity (relative to RLuc) bdc [3]: 1.2
Activity (relative to RLuc) cp [3]: 0.97
Activity (relative to RLuc) n [3]: 1.0
Activity (relative to RLuc) native [3]: 1.1
Serum τ1/2 (h) mouse [4]: 6.5 h

B7: C124A/S257G: RLuc mutant C124A/S257G (protein)
chain: B1 chain with P54A, S257G
Wavelength (nm) mean [1]: 493 nm
Wavelength (nm) peak [1]: 477 nm
Serum τ1/2 (h) rat [2]: 1.4 h
Activity (relative to RLuc) bc [3]: 0.95
Activity (relative to RLuc) bdc [3]: 3.0
Activity (relative to RLuc) cp [3]: 1.3
Activity (relative to RLuc) n [3]: 1.1
Activity (relative to RLuc) native [3]: 1.1
Serum τ1/2 (h) mouse [4]: 1.3 h

B9: C124A/F262L: RLuc mutant C124A/F262L (protein)
chain: B1 chain with P54A, F262L
Wavelength (nm) mean [1]: 495 nm
Wavelength (nm) peak [1]: 478 nm
Serum τ1/2 (h) rat [2]: 6.4 h
Activity (relative to RLuc) bc [3]: 0.03
Activity (relative to RLuc) bdc [3]: 0.03
Activity (relative to RLuc) cp [3]: 0.01
Activity (relative to RLuc) n [3]: 0.06
Activity (relative to RLuc) native [3]: 0.03
Serum τ1/2 (h) mouse [4]: 5.8 h

B10: C124A/K300A: RLuc mutant C124A/K300A (protein)
chain: B1 chain with P54A, K300A
Wavelength (nm) mean [1]: 497 nm
Wavelength (nm) peak [1]: 481 nm
Serum τ1/2 (h) rat [2]: 3.9 h
Activity (relative to RLuc) bc [3]: 1.0
Activity (relative to RLuc) bdc [3]: 1.3
Activity (relative to RLuc) cp [3]: 1.1
Activity (relative to RLuc) n [3]: 1.0
Activity (relative to RLuc) native [3]: 1.1
Serum τ1/2 (h) mouse [4]: 3.5 h

B11: C124A/F199M: RLuc mutant C124A/F199M (protein)
chain: B1 chain with P54A, F199M
Wavelength (nm) mean [1]: 495 nm
Wavelength (nm) peak [1]: 480 nm
Serum τ1/2 (h) rat [2]: 6.0 h
Activity (relative to RLuc) bc [3]: 0.44
Activity (relative to RLuc) bdc [3]: 0.46
Activity (relative to RLuc) cp [3]: 0.53
Activity (relative to RLuc) n [3]: 0.49
Activity (relative to RLuc) native [3]: 0.58
Serum τ1/2 (h) mouse [4]: 6.7 h

B12: C124A/Q235A: RLuc mutant C124A/Q235A (protein)
chain: B1 chain with P54A, Q235A
Wavelength (nm) mean [1]: 489 nm
Wavelength (nm) peak [1]: 473 nm
Serum τ1/2 (h) rat [2]: 3.6 h
Activity (relative to RLuc) bc [3]: 1.1
Activity (relative to RLuc) bdc [3]: 1.2
Activity (relative to RLuc) cp [3]: 1.1
Activity (relative to RLuc) n [3]: 1.0
Activity (relative to RLuc) native [3]: 1.2
Serum τ1/2 (h) mouse [4]: 3.3 h

B13: C124A/F180A: RLuc mutant C124A/F180A (protein)
chain: B1 chain with P54A, F180A
Wavelength (nm) mean [1]: 504 nm
Wavelength (nm) peak [1]: 488 nm
Serum τ1/2 (h) rat [2]: 1.6 h
Activity (relative to RLuc) bc [3]: 0.01
Activity (relative to RLuc) bdc [3]: 0.01
Activity (relative to RLuc) cp [3]: 0.03
Activity (relative to RLuc) n [3]: 0.01
Activity (relative to RLuc) native [3]: 0.02
Serum τ1/2 (h) mouse [4]: 1.6 h
